Experiments:
[1] = target: MtbRNAP core (alpha2 beta beta' omega);sigma B;RbpA R79A (Mycobacterium …, UniProt P9WGZ1;P9WGY9;P9WGY7;P9WGY5;P9WGI5;P9WHJ5 1-347;1-1178;1-1316;1-110;1-323;1-111, ||R79A); assay: KMnO4 footprinting
[2] = target: MtbRNAP core (alpha2 beta beta' omega);sigma B;RbpA (Mycobacterium …, UniProt P9WGZ1;P9WGY9;P9WGY7;P9WGY5;P9WGI5;P9WHJ5 1-347;1-1178;1-1316;1-110;1-323;1-111, ||); assay: EMSA
[3] = target: T1, MtbRNAP core (alpha2 beta beta' omega);sigma B (Mycobacterium …, UniProt P9WGZ1;P9WGY9;P9WGY7;P9WGY5;P9WGI5 1-347;1-1178;1-1316;1-110;1-323, |); assay: EMSA
[4] = target: MtbRNAP core (alpha2 beta beta' omega);sigma B;RbpA KKAA (Mycobacterium …, UniProt P9WGZ1;P9WGY9;P9WGY7;P9WGY5;P9WGI5;P9WHJ5 1-347;1-1178;1-1316;1-110;1-323;1-111, ||K73A;K74A); assay: EMSA
[5] = target: T1, MtbRNAP core (alpha2 beta beta' …); assay: EMSA; remark: listed apart in the source

B1: sigAP-TGTG (dsDNA)
DNA 1: CACTGAAACTTGCCCGCTCGGGCTGTACTCGTGCGCAGTTGTGTTACAATGGTCAGCGGCGGCCGCCCGACCGATAGCGCGCGAGTATTCACGCTGATATCAACGC
DNA 2: GCGTTGATATCAGCGTGAATACTCGCGCGCTATCGGTCGGGCGGCCGCCGCTGACCATTGTAACACAACTGCGCACGAGTACAGCCCGAGCGGGCAAGTTTCAGTG
Q: Does B1 bind [1]?
A: binds

Q: And the Kd [2]?
A: 42 nM

Q: And the Kd [3]?
A: 117 nM

Q: Does B1 bind [4]?
A: binds

B2: sigAP-TG1 (dsDNA)
DNA 1: CACTGAAACTTGCCCGCTCGGGCTGTACTCGTGCGCAGTAATGTTACAATGGTCAGCGGCGGCCGCCCGACCGATAGCGCGCGAGTATTCACGCTGATATCAACGC
DNA 2: GCGTTGATATCAGCGTGAATACTCGCGCGCTATCGGTCGGGCGGCCGCCGCTGACCATTGTAACATTACTGCGCACGAGTACAGCCCGAGCGGGCAAGTTTCAGTG
Q: Does B2 bind [5]?
A: binds

Reference: paper PMC6212719
